Values joined by “and” are separate entries in the source; they are usually repeats but may differ in a detail not shown here. Equal entries are not always repeated.
Legend:
[1] = target: T1, LmCld (chlorite dismutase-like protein, HemQ) (Listeria monocytogenes, UniProt Q8Y5F1); experiment: electronic circular dichroism titration, Soret minimum […] nm, Hill fit; assay type: binding
T1 construct: gene chdC; N-terminal StrepII-tag, TEV-cleavable (cleaved for crystallization); recombinant in E. coli Tuner (DE3); subunit approx. 30 kDa; hexamer approx. 180 kDa in solution, pentamer in crystal
T1 sequence (Q8Y5F1 1-251): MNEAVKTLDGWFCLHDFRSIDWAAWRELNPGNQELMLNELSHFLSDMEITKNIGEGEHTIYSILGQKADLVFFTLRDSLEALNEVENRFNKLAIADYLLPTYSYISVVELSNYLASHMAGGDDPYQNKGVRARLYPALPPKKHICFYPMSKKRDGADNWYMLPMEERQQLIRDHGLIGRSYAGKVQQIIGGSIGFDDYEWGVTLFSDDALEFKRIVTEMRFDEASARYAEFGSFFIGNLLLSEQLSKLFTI

[2] = target: the molecule itself; experiment: SEC-MALS; Superdex 200 10/300 GL, Dulbecco PBS plus 200 mM NaCl, 0.75 mL per min, 50 ug protein injected
[3] = target: the molecule itself; experiment: crystal structure; apo-LmCld, 0.1 M Tris pH 8.5, 0.6 M potassium sodium tartrate, 8% glycerol; 2.0 A, space group P 1 21 1

Molecule	stoichiometry N [2]	also measured
C=CC1=C(C)C2=Cc3c(C=C)c(C)c4[n]3[Fe]([Cl])[n]3c(c(C)c(CCC(=O)O)c3=CC3=NC(=C4)C(C)=C3CCC(=O)O)=CC1=N2 [hemin]		Kd [1]: 7.2 ± 0.5 µM
apo-LmCld (heme-free chlorite dismutase-like protein from Listeria monocytogenes) (natural protein, UniProt Q8Y5F1 1-251, looked up, Chlorite dismutase-like protein (HemQ) of Listeria monocytogenes; subunit of about 30 kDa; Heme-free form; The template was strain L028, the ORF annotation is of strain EGD-e; The tag is TEV-cleavable; also called HemQ; Cld-like protein) MNEAVKTLDGWFCLHDFRSIDWAAWRELNPGNQELMLNELSHFLSDMEITKNIGEGEHTIYSILGQKADLVFFTLRDSLEALNEVENRFNKLAIADYLLPTYSYISVVELSNYLASHMAGGDDPYQNKGVRARLYPALPPKKHICFYPMSKKRDGADNWYMLPMEERQQLIRDHGLIGRSYAGKVQQIIGGSIGFDDYEWGVTLFSDDALEFKRIVTEMRFDEASARYAEFGSFFIGNLLLSEQLSKLFTI	6 subunits and 12 subunits	
holo-LmCld (heme b-bound chlorite dismutase-like protein from Listeria monocytogenes) (natural protein, UniProt Q8Y5F1 1-251, looked up, Chlorite dismutase-like protein (HemQ) of Listeria monocytogenes; subunit of about 30 kDa; heme is partly lost in the high-salt running buffer of the SEC-MALS; also called HemQ; Cld-like protein) MNEAVKTLDGWFCLHDFRSIDWAAWRELNPGNQELMLNELSHFLSDMEITKNIGEGEHTIYSILGQKADLVFFTLRDSLEALNEVENRFNKLAIADYLLPTYSYISVVELSNYLASHMAGGDDPYQNKGVRARLYPALPPKKHICFYPMSKKRDGADNWYMLPMEERQQLIRDHGLIGRSYAGKVQQIIGGSIGFDDYEWGVTLFSDDALEFKRIVTEMRFDEASARYAEFGSFFIGNLLLSEQLSKLFTI	6 subunits and 12 subunits	
apo-LmCld, StrepII-tag cleaved off (as crystallized) (natural protein, Listeria monocytogenes, UniProt Q8Y5F1 1-251, looked up, Chlorite dismutase-like protein (HemQ) of Listeria monocytogenes; Heme-free; homopentamer in the crystal lattice; also called HemQ; LmCld (4WWS); source: E. coli Tuner (DE3), purified (StrepTrap, TEV cleavage, Superdex 200); not shown: StrepII, N-terminal, cleaved) MNEAVKTLDGWFCLHDFRSIDWAAWRELNPGNQELMLNELSHFLSDMEITKNIGEGEHTIYSILGQKADLVFFTLRDSLEALNEVENRFNKLAIADYLLPTYSYISVVELSNYLASHMAGGDDPYQNKGVRARLYPALPPKKHICFYPMSKKRDGADNWYMLPMEERQQLIRDHGLIGRSYAGKVQQIIGGSIGFDDYEWGVTLFSDDALEFKRIVTEMRFDEASARYAEFGSFFIGNLLLSEQLSKLFTI		stoichiometry N [3]: 5 subunits
